Laboratory results taken from the supplement of paper PMC10567573.

B1: SCARA5 (parent)
chain: VTEDLRLKDWEHSIALRNISLAKG

Variants of: B1
Test: protein stability index of a GFP-peptide fusion (GPS, HEK-293T) (PSI 1-6); higher = more stable
Settings: c terminus: a fixed tail appended
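Also: lentivirally expressed fusions sorted by FACS into six bins by GFP to DsRed ratio, PSI derived from sequencing read proportions per bin multiplied by bin number.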

First: KTEDLRLKDWEHSIALRNISLAKG
Second: PTEDLRLKDWEHSIALRNISLAKG
The protein stability index of the first is lower: 3.34 for the first, 3.88 for the second.

First: ATEDLRLKDWEHSIALRNISLAKG
Second: CTEDLRLKDWEHSIALRNISLAKG
The protein stability index of the first is higher: 3.77 for the first, 2.72 for the second.

Going from WTEDLRLKDWEHSIALRNISLAKG to LTEDLRLKDWEHSIALRNISLAKG, the protein stability index falls from 3.42 to 3.26.

Going from MTEDLRLKDWEHSIALRNISLAKG to ETEDLRLKDWEHSIALRNISLAKG, the protein stability index rises from 3.5 to 3.98.

Compared with NTEDLRLKDWEHSIALRNISLAKG, GTEDLRLKDWEHSIALRNISLAKG is lower in protein stability index: 3.98 for the first, 3.15 for the second.

Going from RTEDLRLKDWEHSIALRNISLAKG to ITEDLRLKDWEHSIALRNISLAKG, the protein stability index rises from 3.39 to 3.54.

First: QTEDLRLKDWEHSIALRNISLAKG
Second: FTEDLRLKDWEHSIALRNISLAKG
The protein stability index of the first is higher: 4.04 for the first, 2.81 for the second.

Compared with YTEDLRLKDWEHSIALRNISLAKG, TTEDLRLKDWEHSIALRNISLAKG is higher in protein stability index: 2.83 for the first, 3.89 for the second.

Going from STEDLRLKDWEHSIALRNISLAKG to DTEDLRLKDWEHSIALRNISLAKG, the protein stability index rises from 3.74 to 3.75.

Going from HTEDLRLKDWEHSIALRNISLAKG to VTHDLRLKDWEHSIALRNISLAKG, the protein stability index falls from 3.89 to 3.03.

Compared with VTRDLRLKDWEHSIALRNISLAKG, VTLDLRLKDWEHSIALRNISLAKG is lower in protein stability index: 2.96 for the first, 1.37 for the second.

Going from VTDDLRLKDWEHSIALRNISLAKG to VTYDLRLKDWEHSIALRNISLAKG, the protein stability index falls from 3.68 to 2.44.

Compared with VTWDLRLKDWEHSIALRNISLAKG, VTSDLRLKDWEHSIALRNISLAKG is higher in protein stability index: 1.58 for the first, 3.16 for the second.

Going from VTGDLRLKDWEHSIALRNISLAKG to VTVDLRLKDWEHSIALRNISLAKG, the protein stability index falls from 2.94 to 1.69.

First: VTKDLRLKDWEHSIALRNISLAKG
Second: VTTDLRLKDWEHSIALRNISLAKG
The protein stability index of the first is higher: 3 for the first, 2.71 for the second.

First: VTMDLRLKDWEHSIALRNISLAKG
Second: VTFDLRLKDWEHSIALRNISLAKG
The protein stability index of the first is higher: 2.75 for the first, 1.85 for the second.

Going from VTIDLRLKDWEHSIALRNISLAKG to VTPDLRLKDWEHSIALRNISLAKG, the protein stability index rises from 2.26 to 3.39.

First: VTCDLRLKDWEHSIALRNISLAKG
Second: VTADLRLKDWEHSIALRNISLAKG
The protein stability index of the first is higher: 2.25 for the first, 1.74 for the second.

Going from VTQDLRLKDWEHSIALRNISLAKG to VTNDLRLKDWEHSIALRNISLAKG, the protein stability index rises from 2.63 to 3.03.

First: VTEDLSLKDWEHSIALRNISLAKG
Second: VTEDLFLKDWEHSIALRNISLAKG
The protein stability index of the first is lower: 3.27 for the first, 3.56 for the second.

Going from VTEDLQLKDWEHSIALRNISLAKG to VTEDLLLKDWEHSIALRNISLAKG, the protein stability index falls from 3.79 to 3.29.

Going from VTEDLWLKDWEHSIALRNISLAKG to VTEDLMLKDWEHSIALRNISLAKG, the protein stability index rises from 2.62 to 2.99.

Compared with VTEDLHLKDWEHSIALRNISLAKG, VTEDLGLKDWEHSIALRNISLAKG is lower in protein stability index: 3.62 for the first, 3.53 for the second.

Going from VTEDLVLKDWEHSIALRNISLAKG to VTEDLCLKDWEHSIALRNISLAKG, the protein stability index falls from 3.95 to 3.86.

Going from VTEDLELKDWEHSIALRNISLAKG to VTEDLNLKDWEHSIALRNISLAKG, the protein stability index falls from 3.58 to 3.22.

First: VTEDLPLKDWEHSIALRNISLAKG
Second: VTEDLTLKDWEHSIALRNISLAKG
The protein stability index of the first is lower: 3.26 for the first, 3.75 for the second.

Going from VTEDLDLKDWEHSIALRNISLAKG to VTEDLALKDWEHSIALRNISLAKG, the protein stability index falls from 3.73 to 3.63.

Going from VTEDLYLKDWEHSIALRNISLAKG to VTEDLILKDWEHSIALRNISLAKG, the protein stability index rises from 2.85 to 3.15.

First: VTEDLKLKDWEHSIALRNISLAKG
Second: VTEDWRLKDWEHSIALRNISLAKG
The protein stability index of the first is higher: 3.66 for the first, 3.35 for the second.

Compared with VTEDDRLKDWEHSIALRNISLAKG, VTEDMRLKDWEHSIALRNISLAKG is lower in protein stability index: 4.14 for the first, 3.46 for the second.

Compared with VTEDERLKDWEHSIALRNISLAKG, VTEDPRLKDWEHSIALRNISLAKG is lower in protein stability index: 4.19 for the first, 3.77 for the second.

Compared with VTEDYRLKDWEHSIALRNISLAKG, VTEDGRLKDWEHSIALRNISLAKG is higher in protein stability index: 3.34 for the first, 3.93 for the second.

Compared with VTEDTRLKDWEHSIALRNISLAKG, VTEDSRLKDWEHSIALRNISLAKG is higher in protein stability index: 3.68 for the first, 3.89 for the second.

First: VTEDQRLKDWEHSIALRNISLAKG
Second: VTEDCRLKDWEHSIALRNISLAKG
The protein stability index of the first is higher: 3.73 for the first, 3.34 for the second.

First: VTEDHRLKDWEHSIALRNISLAKG
Second: VTEDNRLKDWEHSIALRNISLAKG
The protein stability index of the first is higher: 3.91 for the first, 3.83 for the second.

First: VTEDKRLKDWEHSIALRNISLAKG
Second: VTEDVRLKDWEHSIALRNISLAKG
The protein stability index of the first is higher: 4.14 for the first, 3.65 for the second.

Going from VTEDARLKDWEHSIALRNISLAKG to VTEDFRLKDWEHSIALRNISLAKG, the protein stability index falls from 3.92 to 2.97.

Compared with VTEDRRLKDWEHSIALRNISLAKG, VTEDIRLKDWEHSIALRNISLAKG is lower in protein stability index: 3.74 for the first, 3.63 for the second.

First: VYEDLRLKDWEHSIALRNISLAKG
Second: VREDLRLKDWEHSIALRNISLAKG
The protein stability index of the first is lower: 3.17 for the first, 3.21 for the second.

Going from VLEDLRLKDWEHSIALRNISLAKG to VNEDLRLKDWEHSIALRNISLAKG, the protein stability index rises from 2.49 to 3.85.

First: VWEDLRLKDWEHSIALRNISLAKG
Second: VGEDLRLKDWEHSIALRNISLAKG
The protein stability index of the first is lower: 2.46 for the first, 3.26 for the second.

Compared with VQEDLRLKDWEHSIALRNISLAKG, VAEDLRLKDWEHSIALRNISLAKG is lower in protein stability index: 3.58 for the first, 3.21 for the second.

Compared with VIEDLRLKDWEHSIALRNISLAKG, VEEDLRLKDWEHSIALRNISLAKG is higher in protein stability index: 2.5 for the first, 4.15 for the second.

First: VFEDLRLKDWEHSIALRNISLAKG
Second: VCEDLRLKDWEHSIALRNISLAKG
The protein stability index of the first is lower: 2.61 for the first, 3.12 for the second.

Going from VVEDLRLKDWEHSIALRNISLAKG to VDEDLRLKDWEHSIALRNISLAKG, the protein stability index rises from 3.48 to 3.8.

First: VKEDLRLKDWEHSIALRNISLAKG
Second: VMEDLRLKDWEHSIALRNISLAKG
The protein stability index of the first is higher: 3.65 for the first, 3.38 for the second.

Compared with VHEDLRLKDWEHSIALRNISLAKG, VPEDLRLKDWEHSIALRNISLAKG is higher in protein stability index: 3.52 for the first, 3.69 for the second.
